From paper PMC10071783 (Journal of Nuclear Medicine, 2023)
Read-outs that look alike come from different tables or passages of the source.

How the values were obtained:
[1] = Serum stability in human serum at 37°C by ITLC; type: in vitro ADME; settings: for remaining at 240 h, 370 kBq/mL: human serum (EMD Millipore), pH 7.4, 370 kBq in 1 mL, up to 10 d, read-out ITLC, read-out: intact conjugate remaining in human serum; for stability in human serum: ITLC
Protocol: Radiochelate was diluted to 370 kBq in 1 mL of human serum and placed on an Eppendorf ThermoMixer set to 37°C. At fixed intervals, aliquots were removed from the reactions and analyzed by ITLC as described in the supplemental information.

[2] = parameters: method as in PMID 33772332; settings: cited from earlier work
[3] = Biodistribution in mice bearing subcutaneous H69 tumor xenografts; type: in vivo; settings: female, NCI Athymic NCr-nu/nu, mouse, 37 kBq, total radioactivity; for tissue uptake at 4 h: 4 h after injection, read-out: kidney percentage injected activity per gram of tissue; for tissue uptake at 2 h: 2 h after injection; for tissue uptake at 2 h / tissue uptake at 24 h: H69 xenograft mice, n = 3, read-out: tumor uptake, percentage injected activity per gram of tissue; for tissue uptake at 24 h: 24 h after injection
Protocol: All procedures and animal studies followed a protocol approved by the National Institutes of Health Institutional Animal Care and Use Committee (protocol ROB104). Female athymic homozygous nude mice (NCI Athymic NCr-nu/nu strain 553; Charles River Laboratories), 8–10 wk old, were subcutaneously engrafted with 8 × 10^6 H69 cells in 200 μL of ice-cold phosphate-buffered saline. Treatment of tumors with radiotracers for biodistribution or therapy studies was performed once palpable tumors developed, approximately 1 mo after inoculation. […] Full experimental details for the biodistribution experiments are reported in the supplemental information.
(C) Corresponding tumor-to-tissue ratios for selected organs with lysine pretreatment. Full 12-organ biodistribution data are reported in Supplemental Figures 8–11. Error bars represent SD. ***P < 0.005. […]. %IA/g = percentage injected activity per gram of tissue.

[4] = parameters: method as in PMID 33772332; settings: 148 kBq; cited from earlier work
H69 lung NET xenografts = experiment: Head-to-head therapy study in mice engrafted with H69 cells; type: in vivo; settings: 46.3 kBq
Protocol: Animals engrafted with H69 cells were treated with either of the 2 radioconjugates or saline (n = 8–10, each). Local control and survival were the primary outcomes. All groups were tracked for humane endpoints including, but not limited to, tumors larger than 2,000 mm^3 and weight loss greater than 20%.
FIGURE 5. […] (A) Tumor volume measurements over time. Solid lines represent average volume, and dashed lines represent 95% CI. Plots for each dataset are discontinued after first mouse death due to excessive tumor volume. Full tumor volume measurements for study duration for each mouse are reported in Supplemental Figures 15–17. (B) Maximal response to treatment (tumor volume growth percentage) of individual mice. Nonresponding mice are represented as full tumor growth (2,000% increase). (C) Mouse survival over time. Endpoint was defined as tumor volume > 2,000 mm^3 or weight loss over 20% of starting weight. (D) Average mouse body weights over time for each treatment group. Error bars represent SD. ***P < 0.005. *P < 0.05.

[5] = Dose-finding study in mice bearing H69 tumor xenografts; type: in vivo; settings: D-lysine pretreatment
Description: The promising biodistribution profile of ^225Ac-MACROPATATE led us to investigate its therapeutic efficacy. […] All mice in the 148-kBq treatment group (10/10) and 1 of 3 mice in the 92.3-kBq group were euthanized within 10 d of treatment because of substantial weight loss (>20%).

[6] = 8 d; cited from earlier work
Protocol: DOTA and its derivatives are used to chelate ^225Ac and many of the previously mentioned radionuclides. However, to chelate ^225Ac with DOTA to yield high-specific-activity radioconjugates, temperatures above 70°C are typically required. Even if these temperatures are used, the resulting complex’s thermodynamic stability ([19]) and labeling kinetics are suboptimal ([20]).

Row | SMILES | remaining at 240 h, 370 kBq/mL [1] [%] | stability in human serum [1] | intact 225Ac-DOTATATE after 10 d [2] [%] | tissue uptake at 4 h ([3]; kidney, after D-lysine administration (35 mg/mouse)) [%ID/g] | tissue uptake at 4 h ([3]; kidney, without D-lysine) [%ID/g] | tissue uptake at 2 h ([3]; tumor) [%ID/g] | tissue uptake at 24 h ([3]; tumor) [%ID/g] | tolerability in mice [4] | tissue uptake at 2 h ([3]; in vivo) [%ID/g] | tissue uptake at 4 h ([3]; in vivo, after D-lysine administration (35 mg/mouse)) [%ID/g] | tissue uptake at 4 h ([3]; in vivo, without D-lysine) [%ID/g] | tissue uptake at 24 h ([3]; in vivo) [%ID/g] | duration of initial reduction in tumor volume after treatment (H69 lung NET xenografts) | mice whose tumors subsequently relapsed (H69 lung NET xenografts) | median survival (H69 lung NET xenografts; H69 xenograft mice, n = 8-10, vehicle 26 d, log rank P = 0.0006) [days] | mice euthanized within 10 d of treatment because of substantial weight loss (>20%) ([5]; 92.3-kBq group) | mice euthanized within 10 d of treatment because of substantial weight loss (>20%) ([5]; 148-kBq treatment group) | stability in C57BL6 mice compared with 225Ac-DOTA [6] | stability in human serum compared with 225Ac-DOTA [6]
1 | C[C@@H](O)[C@H](NC(=O)[C@@H]1CSSC[C@H](NC(=O)[C@@H](Cc2ccccc2)NC(=O)CN2CCN(CC(=O)O)CCN(CC(=O)O)CCN(CC(=O)O)CC2)C(=O)N[C@@H](Cc2ccc(O)cc2)C(=O)N[C@H](Cc2c[nH]c3ccccc23)C(=O)N[C@@H](CCCCN)C(=O)N[C@@H]([C@@H](C)O)C(=O)N1)C(=O)O [^225Ac-DOTATATE, metal not drawn, reference compound] | 95 | stable to 10 d | 90 | 3.1 | 6 | 5 | 2 | well tolerated | – | – | – | – | – | – | – | – | – | – | –
2 | C[C@@H](O)[C@H](NC(=O)[C@@H]1CSSC[C@H](NC(=O)[C@@H](Cc2ccccc2)NC(=S)Nc2cc(CN3CCOCCOCCN(Cc4cccc(C(=O)O)n4)CCOCCOCC3)nc(C(=O)O)c2)C(=O)N[C@@H](Cc2ccc(O)cc2)C(=O)N[C@H](Cc2c[nH]c3ccccc23)C(=O)N[C@@H](CCCCN)C(=O)N[C@@H]([C@@H](C)O)C(=O)N1)C(=O)O [^225Ac-MACROPATATE, metal not drawn] | 98 | stable to 10 d | – | – | – | – | – | – | 9 | 5.2 | 11.5 | 4 | approximately 3 wk | 7 of 8 | 55 | 1 of 3 | 10/10 | – | –
3 | O=C([O-])c1cccc(CN2CCOCCOCCN(Cc3cccc(C(=O)[O-])n3)CCOCCOCC2)n1.[225Ac+3] [^225Ac-MACROPA] | – | – | – | – | – | – | – | – | – | – | – | – | – | – | – | – | – | comparable stability | comparable stability
